Experiment [1] deals with His6x-CutF, purified (Klebsiella pneumoniae) (UniProt A6T4Z5). The experiment in a line: SEC; purified His6x-tagged core enzymes, alone and together, on the Superose 6 column.
The target in experiment [2] is cmcD (BMC-P shell protein) (Klebsiella pneumoniae). The experiment in a line: cryo-EM structure; small type cmcABC′ + cmcD + CutC_(336–1128) BDPs (gel filtration 90-100 ml), 1 mg/ml in 100 mM NaCl, 20 mM Tris-HCl pH 8.0; pT = 4 icosahedral map at 3.3 Å. Background: In gel filtration, larger molecules generally elute earlier.

Usually stoichiometry N stands for the number of molecules, sites or subunits per partner or assembly.

“His6x-CutF, purified (from UniProt A6T4Z5 1-239) (enzyme)”: the stoichiometry N in experiment [1] came out at 4.
On to “cmcD (BMC-P shell protein) (natural protein)”, for which the stoichiometry N in experiment [2] is 5.

The values above are taken from article PMC6971018.
